{"source": "patent US20240409637A1", "key": {"[1]": {"molecular_target": "human CD8 alpha and beta subunit on JRT3.T3/AP1-Luc/CD28/CD8AB/1G4AB clone 18 reporter T cells (human) (UniProt P01732)", "sequence (P01732 22-235, chain 1 of 2)": "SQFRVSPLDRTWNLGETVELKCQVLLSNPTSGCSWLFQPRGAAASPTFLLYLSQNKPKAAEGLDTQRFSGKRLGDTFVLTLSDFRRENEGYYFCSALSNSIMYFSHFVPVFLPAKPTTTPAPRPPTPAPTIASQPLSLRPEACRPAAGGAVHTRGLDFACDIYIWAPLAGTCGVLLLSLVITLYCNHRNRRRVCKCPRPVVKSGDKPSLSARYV", "sequence (P10966 22-210, chain 2 of 2, further chain)": "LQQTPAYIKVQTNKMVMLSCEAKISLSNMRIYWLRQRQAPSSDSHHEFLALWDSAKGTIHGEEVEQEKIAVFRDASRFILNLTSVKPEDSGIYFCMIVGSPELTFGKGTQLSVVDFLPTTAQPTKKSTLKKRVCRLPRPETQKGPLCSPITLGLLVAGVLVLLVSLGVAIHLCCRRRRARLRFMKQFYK", "assay": "cell-based or functional assay"}, "[2]": {"molecular_target": "human CD8 on cells (primary human CD8 positive T cells; T cells of mice expressing hCD8; human PBMC-derived lymphocytes) (human) (UniProt P01732)", "sequence (P01732 22-235, chain 1 of 2)": "as the sequence (P01732 22-235, chain 1 of 2) above", "sequence (chain, as listed by the source, chain 2 of 2)": "as the sequence (P10966 22-210, chain 2 of 2, further chain) above", "assay": "cell-based or functional assay"}}, "data": [{"substance": "Clone RPA-T8 (commercially available anti-CD8 antibody)", "values": [{"measurement": "IC50 [M], reduction of AP1-luciferase activity in CD8 T cell/APC luciferase assay", "setting": "[1]", "result": "1.61e-10", "unit": "M"}, {"measurement": "Reduction of T cell response at 100 nM [%], CD8 T cell/APC luciferase assay", "setting": "[1]", "result": 97.9, "unit": "%"}]}, {"substance": "Isotype 1 (antibody)", "values": [{"measurement": "Reduction of T cell response at 100 nM [%], CD8 T cell/APC luciferase assay", "setting": "[1]", "result": 7.4, "unit": "%"}]}, {"substance": "Isotype 2 (antibody)", "values": [{"measurement": "Reduction of T cell response at 100 nM [%], CD8 T cell/APC luciferase assay", "setting": "[1]", "result": 6.2, "unit": "%"}]}, {"substance": "isotype control antibody (irrelevant isotype matched antibody)", "values": [{"measurement": "Percent Inhibition of IFNγ Production, one-way MLR Reaction 1, 0.5 nM antibody", "setting": "[2]", "result": 0.5, "unit": "%"}, {"measurement": "Percent Inhibition of IFNγ Production, one-way MLR Reaction 1, 5 nM antibody", "setting": "[2]", "result": 3.9, "unit": "%"}, {"measurement": "Percent Inhibition of IFNγ Production, one-way MLR Reaction 1, 50 nM antibody", "setting": "[2]", "result": -6.6, "unit": "%"}, {"measurement": "Percent Inhibition of IFNγ Production, one-way MLR Reaction 2, 0.5 nM antibody", "setting": "[2]", "result": 2.3, "unit": "%"}, {"measurement": "Percent Inhibition of IFNγ Production, one-way MLR Reaction 2, 5 nM antibody", "setting": "[2]", "result": 3.4, "unit": "%"}, {"measurement": "Percent Inhibition of IFNγ Production, one-way MLR Reaction 2, 50 nM antibody", "setting": "[2]", "result": 25.4, "unit": "%"}]}]}
